Laboratory results: the supplement of paper PMC10567573
± gives the standard deviation.

Experiment: protein stability index of a GFP-peptide fusion (GPS, HEK-293T) (PSI 1-6); higher = more stable
[1] = treatment: DMSO, c terminus: a fixed tail appended
[2] = treatment: MLN4924 1 uM, 8 h, c terminus: a fixed tail appended
[3] = treatment: DMSO, c terminus: native
[4] = treatment: MLN4924 1 uM, 8 h, c terminus: native
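Further: 24-mer peptide tiles fused after GFP, lentivirally expressed, FACS-sorted into six equal bins by GFP/DsRed ratio, decoded by Illumina sequencing, PSI is the read-weighted mean bin number.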

Row | Sequence | protein stability index [1] | protein stability index [2] | protein stability index [3] | protein stability index [4]
1 | TLHPDASANFHSLDDIYYFGGQNA [FUT8] | 3.21 ± 0.12 | 3.27 ± 0.16 |  | 
2 | AQTLLRLSGVQRVESVFFGGGTPS [RSAD1] | 2.43 ± 0.27 | 2.47 ± 0.3 |  | 
3 | NQEDAIHFHRTLKEACDQHGPDLY [CPOX] | 4.33 ± 0.21 | 4.47 ± 0.15 |  | 
4 | ILNLKKKECKDRGFEYDGKINAWD [NLN] | 2.97 ± 0.26 | 3.43 ± 0.6 |  | 
5 | ENKPSTCSFSIERILGLDQKKDCV [HESX1] | 3.12 ± 0.49 | 3.42 ± 0.47 |  | 
6 | YFFCENDAEFLCVFCREGPTHQAH [TRIM15] | 2.26 ± 0.35 | 2.33 ± 0.54 |  | 
7 | ITSSIPDTERLDDFHLSIHSDMAA [DVL3] | 4.08 ± 0.22 | 4.3 ± 0.17 |  | 
8 | KIIFRVGLVLLKHALGSPEKVKAC [TBC1D10A] | 2.77 ± 0.43 | 2.76 ± 0.19 |  | 
9 | WILFPLLGCYAVYSLLYLEHKGWY [CLPTM1] | 2.9 ± 0.28 | 3.4 ± 0.072 |  | 
10 | MSLRLQSSSASYGGGFGGGSCQLG [KRT13] | 2.54 ± 0.11 | 2.49 ± 0.11 |  | 
11 | FLDLERPPTTPQNEEIRAVGRLKR [MFF] |  | 4.07 ± 0.3 |  | 
12 | KGSPDVSASSDEPYARIQQSRRQC [SMIM2] | 4.74 ± 0.18 | 5.02 ± 0.2 |  | 
13 | RVYFLKGGYETFYSEYPECCVDVK [DUSP5] | 2.09 ± 0.23 | 2.46 ± 0.55 |  | 
14 | LLAAQVQLQCSPAELQAELLHSQA [FBF1] | 2.56 ± 0.26 | 2.42 ± 0.45 |  | 
15 | LYELASLKRAFEAANLPALVLKIM [NEK8] | 2.33 ± 0.36 | 2.12 ± 0.34 |  | 
16 | ITTVSKAKGASLFTCDLQHTETGE [VPS39] | 4.06 ± 0.25 | 3.99 ± 0.21 |  | 
17 | HDSVVEMIRKGGDQTSLLVVDKET [PDZK1] |  | 4.76 ± 0.33 |  | 
18 | LYTPSNEHFGIVPLEAMYMQCPVI [ALG2] | 2.28 ± 0.098 | 2.39 ± 0.35 |  | 
19 | GASHVLALSTERELFAWGRGDSGR [NEK8] | 3.38 ± 0.31 | 3.42 ± 0.26 |  | 
20 | SSAYVKTSEKLGEWNEKVTQSDLY [TPD52L2] | 4.02 ± 0.19 | 3.98 ± 0.17 |  | 
21 | VGSDDLERIEARLATLEGDDPSLR [PSD2] | 5.32 ± 0.17 | 5.42 ± 0.17 |  | 
22 | LDEALKHVKETQPPETVQNWIELL [GOLPH3] | 3.94 ± 0.18 | 4.17 ± 0.24 |  | 
23 | CEGPPRGKGFRDRNVTGTPLTGDK [ADAMTSL2] | 5.07 ± 0.36 | 5.17 ± 0.16 |  | 

Row | Sequence | protein stability index [1] | protein stability index [2] | protein stability index [3] | protein stability index [4]
24 | FSKNLKLGIHEDSTNRRRLSELLR [HSP90AB1] |  | 2.43 ± 0.39 |  | 
25 | IGGHLVRDNDHPDHSSRELSKILA [FUT8] | 3.92 ± 0.19 | 3.9 ± 0.18 |  | 
26 | QGNGLFYSSGPQSWYPKANNQDFI [ZC2HC1C] | 2.6 ± 0.16 | 2.85 ± 0.051 |  | 
27 | TVFDANDNAPVFTLPEYRVSVPEN [PCDHGA10] | 3.53 ± 0.11 | 3.86 ± 0.16 |  | 
28 | TEELNKEVASNTEMIQTSKTEITD [KRT15] | 5.49 ± 0.29 | 5.52 ± 0.19 |  | 
29 | VPRYTGVAPQDQCKLTCQAQALGY [ADAMTS4] | 2.4 ± 0.47 | 2.65 ± 0.36 |  | 
30 | KNHEEEMLALRGQTGGDVNVEMDA [KRT16] | 5.46 ± 0.17 | 5.6 ± 0.22 |  | 
31 | VQGGSEAWGPGTLAAAPEGLEDAG [TEX19] | 5.12 ± 0.36 | 5.41 ± 0.2 |  | 
32 | EVAGGGTPLLIAARYGHLDVVEYL [FEM1A] | 2.46 ± 0.19 | 2.32 ± 0.34 |  | 
33 | CTNIFYEEENPGGCEDEYLVNPTC [ZER1] | 4.31 ± 0.2 | 4.36 ± 0.33 |  | 
34 | HHRVQENQMDKARRHPQGAWKELD [CHGB] | 4.45 ± 0.11 | 4.4 ± 0.11 |  | 
35 | QHAALGGTATRQNNWPPLPSFCPV [SCAMP3] | 3.33 ± 0.28 | 3.39 ± 0.37 |  | 
36 | LLIEGRSVNEHTEEGESLLCLACS [ANKRD17] | 3.22 ± 0.6 | 3.27 ± 0.91 |  | 
37 | LTERLKVLEAKMTMLTVIEQPVPP [EMID1] | 3.09 ± 0.46 | 3.32 ± 0.16 |  | 
38 | CVVCGDKSSGKHYGQFTCEGCKSF [NR2F2] | 4.76 ± 0.4 | 4.99 ± 0.14 |  | 
39 | VGPLAQDPQSPMAGLRWLDSWDF [POMT2] |  |  | 3.34 ± 0.38 | 3.36 ± 0.3
40 | EDDPLLDAQLLPHHSLQAHFRPRF [TMEM192] | 3.57 ± 0.35 | 3.53 ± 0.15 |  | 
41 | DRVLNYTSWSQHCPWEPQKQPPWE [SPAG8] | 2.87 ± 0.2 | 2.96 ± 0.15 |  | 
42 | EEWNALQSVENCPEDLAQLEELID [RPAIN] | 5.14 ± 0.29 | 5.29 ± 0.26 |  | 
43 | GCFRSQGASLRLAVEDGLQQFKQY [M1AP] | 2.88 ± 0.68 | 2.78 ± 0.074 |  | 
44 | SAENGLEKSGFSQHQNKSPPKVKA [DLC1] | 5.14 ± 0.44 | 5.1 ± 0.45 |  | 
45 | CAFSRTLPWSSVLRVWDMFFCEGV [TBC1D10A] | 2.85 ± 0.42 | 2.94 ± 0.49 |  | 
46 | VHPTKHEVHFLHEESILERVQQHI [MLH1] | 3.18 ± 0.16 | 3.28 ± 0.15 |  | 

Row | Sequence | protein stability index [1] | protein stability index [2] | protein stability index [3] | protein stability index [4]
47 | EKTNGATPLLMAARYGHLDMVEFL [FEM1C] | 2.91 ± 0.2 | 3.05 ± 0.37 |  | 
48 | HPYSTTFQESASTPETRAKFTQDN [TEKT4] | 4.54 ± 0.13 | 4.67 ± 0.31 |  | 
49 | TIPASLDLSPLLGFWQLPPPATQN [PLAGL1] | 2.74 ± 0.15 | 2.96 ± 0.32 |  | 
50 | LLSSGFEIDTPDKFGRTCLHAAAA [ANKRD44] | 2.95 ± 0.39 | 2.95 ± 0.035 |  | 
51 | KKWQQYRSVRRERLKEMKLLRDQF [FAM9B] | 2.59 ± 0.27 | 2.71 ± 0.2 |  | 
52 | LPGAVATIVKPLSAIPQPTITKQE [HNF4A] | 4.51 ± 0.24 | 4.54 ± 0.17 |  | 
53 | EANADLEVKIRDWHLKQSPASPER [KRT13] | 4.79 ± 0.15 | 4.97 ± 0.27 |  | 
54 | VKVLAFTSIGDGPLSSDIQVITQT [PTPRD] | 2.62 ± 0.48 | 2.31 ± 0.37 |  | 
55 | AAALDYEADGSTNNGIFQINSRRW [SPACA3] | 3.64 ± 0.46 | 3.76 ± 0.35 |  | 
56 | TVKHIDAALSEENTGKTYFFVANK [MMP1] | 3.28 ± 0.32 | 3.38 ± 0.18 |  | 
57 | GQTGTRLTPADKAEHMKRQRHPRL [AUP1] | 4.32 ± 0.18 | 4.6 ± 0.075 |  | 
58 | IYTEFPDETLRSGELLNMIVAVID [INTS3] | 2.14 ± 0.29 | 2.47 ± 0.099 |  | 
59 | RISHTLYDLDKIIELNGGQPPLTY [CRY1] | 2.38 ± 0.041 | 2.6 ± 0.27 |  | 
60 | PCFKWYTSPWSECTKTCGVGVRMR [ADAMTSL2] | 2.07 ± 0.17 | 2.33 ± 0.32 |  | 
61 | RDPLQTDTLQNDYFAIKQEVVTPD [ETS1] | 4.89 ± 0.42 | 4.9 ± 0.47 |  | 
62 | KVLGNRWAEIAKMLPGRTDNAVKN [MYBL2] | 2.91 ± 0.45 | 2.98 ± 0.24 |  | 
63 | LTLQVYREQADSCREQLDIMNDLS [TRIM14] | 2.99 ± 0.24 | 2.95 ± 0.1 |  | 
64 | KISGGPHISYPPLHEWVLREGEE [MAGEA3] |  |  | 2.92 ± 0.62 | 3.33 ± 0.43
65 | AENYLSGGGPGDGGGADTGTGGEE [FBXO33] | 5.42 ± 0.31 | 5.55 ± 0.23 |  | 
66 | SRAESAPLPVSADDTPEVLNRALS [CDS2] | 5.36 ± 0.19 | 5.37 ± 0.21 |  | 
67 | SLLDVAEPGGPGWLPESDCETVTC [SMAD6] | 4.63 ± 0.27 | 4.74 ± 0.18 |  | 
68 | SLEESVGKPLYLIFRNLCQMQEDN [INTS3] | 2.45 ± 0.45 | 2.46 ± 0.22 |  | 
69 | GKKRCKDIKRLLVNFMYLQSLLQP [SMG5] | 2.428 ± 0.007 | 2.48 ± 0.41 |  | 

Row | Sequence | protein stability index [1] | protein stability index [2] | protein stability index [3] | protein stability index [4]
70 | RHEVIMDRHGVYGLQRNLLVENII [TRIM63] | 2.42 ± 0.13 | 2.31 ± 0.22 |  | 
71 | KRPAPRTAPRQEKHERTHEIIPIN [SPRY1] | 4.03 ± 0.18 | 4.2 ± 0.15 |  | 
72 | GIENEEDTSKQKKMETMYPFIVTL [ZNF449] | 2.39 ± 0.38 | 2.36 ± 0.1 |  | 
73 | PEPRSEVVPARLKRASAPTFDNDY [RIPK4] | 4.86 ± 0.47 | 4.63 ± 0.36 |  | 
74 | VRSGIVEYLSLVKGGQDVKKKVHL [PRIM1] | 2.43 ± 0.26 | 2.28 ± 0.44 |  | 
75 | VRVVFFPLFSNWWIQVTSLRIFVW [PHTF1] | 2.79 ± 0.69 | 2.87 ± 0.77 |  | 
76 | ARAFAEKNNLSFIETSALDSTNVE [RAB11B] | 4.51 ± 0.15 | 4.54 ± 0.13 |  | 
77 | VAFVDRADIKQYIGPPSAAAIFKI [TRIP13] | 2.82 ± 0.66 | 2.36 ± 0.47 |  | 
78 | FTSGTGHFTAMVWKNTKKMGVGKA [GLIPR2] | 2.66 ± 0.29 | 2.74 ± 0.2 |  | 
79 | GACPGADEAGGGAEGDSWEEEGFG [WEE1] | 5.35 ± 0.24 | 5.54 ± 0.21 |  | 
80 | NIRQKVKELVEFAQDDDRLREERK [CLINT1] | 4.55 ± 0.17 | 5.01 ± 0.19 |  | 
81 | LAGQFLEELRKFSSLCYKQRIKSQ [MOG] | 2.17 ± 0.27 | 2.14 ± 0.38 |  | 
82 | FATQTEELNKQVVSSSEQLQSCQA [KRT34] | 4.87 ± 0.28 | 4.86 ± 0.33 |  | 
83 | WAISSWFRRGPAPQDQAGPGGAPR [CLPTM1] | 2.75 ± 0.47 | 3.21 ± 0.48 |  | 
84 | TESYIARPDGDCASSLNGGNIKGI [ZC2HC1A] | 4.09 ± 0.047 | 4.24 ± 0.21 |  | 
85 | VSKVTGWCRDRLLGHREPSAHPVE [TMEM175] | 3.21 ± 0.22 | 3.33 ± 0.099 |  | 
86 | RAGLDLPTIDTGYDSQPQDVLGIR [TRAF3IP2] | 4.25 ± 0.37 | 4.29 ± 0.18 |  | 
87 | LGSGPDRELRKPEEPENGEPTAAA [PWWP2B] | 5.52 ± 0.18 | 5.25 ± 0.47 |  | 
88 | GGTPIRGALQIEQSEESDQGKYEC [PTPRD] | 5.57 ± 0.38 | 5.4 ± 0.31 |  | 
89 | SVIKDHHTRSITSCCFDPDSQRVA [WDR88] | 3.35 ± 0.2 | 3.41 ± 0.38 |  | 
90 | DLEMKEEEEISETGELVGPFVSAM [ZBED2] | 5.29 ± 0.27 | 5.27 ± 0.12 |  | 
